Numbering of substitutions follows the chain as printed.
B1: GLS3000 R29V (antibody, name in Kabat numbering, V domains shown)
VH: QVQLVESGGGVVQPGRSLRLSCAASGFTFSNAWMHWVRQAPGKGLEWVAQIKAKSNNYATYYAESVKGRFTISRDDSKNSLYLQMNSLKTEDTAVYYCRYVHYGAYYGVDAWGQGTTVTVSS
VL: DIVMTQSPLSLPVTPGEPASISCRSSQSLVHSNVNTYLHWYQQKPGQAPRLLIYKVSNRFSGVPDRFSGSGSGTDFTLKISRVEAEDVGVYYCGQGTQVPYTFGQGTKLEIK
notes: one-arm IgG as m2
B2: GLS3000 R29Y (antibody, name in Kabat numbering, V domains shown)
VH: B1 VH
VL: B1 VL with V34Y
notes: one-arm IgG as m2
B3: GLS3000 R54A (antibody, name in Kabat numbering, V domains shown)
VH: B1 VH
VL: B1 VL with V34R, R59A
notes: one-arm IgG as m2
B4: GLS3000 R54D (antibody, name in Kabat numbering, V domains shown)
VH: B1 VH
VL: B1 VL with V34R, R59D
notes: one-arm IgG as m2
B5: GLS3000 R54E (antibody, name in Kabat numbering, V domains shown)
VH: B1 VH
VL: B1 VL with V34R, R59E
notes: one-arm IgG as m2
B6: GLS3000 R54G (antibody, name in Kabat numbering, V domains shown)
VH: B1 VH
VL: B1 VL with V34R, R59G
notes: one-arm IgG as m2
B7: GLS3000 R54P (antibody, name in Kabat numbering, V domains shown)
VH: B1 VH
VL: B1 VL with V34R, R59P
notes: one-arm IgG as m2
B8: GLS3000 R54Q (antibody, name in Kabat numbering, V domains shown)
VH: B1 VH
VL: B1 VL with V34R, R59Q
notes: one-arm IgG as m2
B9: GLS3000 R54S (antibody, name in Kabat numbering, V domains shown)
VH: B1 VH
VL: B1 VL with V34R, R59S
notes: one-arm IgG as m2
B10: GLS3000 R54T (antibody, name in Kabat numbering, V domains shown)
VH: B1 VH
VL: B1 VL with V34R, R59T
notes: one-arm IgG as m2
B11: GLS3000 R54W (antibody, name in Kabat numbering, V domains shown)
VH: B1 VH
VL: B1 VL with V34R, R59W
notes: one-arm IgG as m2
B12: GLS3000 R77S (antibody, name in Kabat numbering, V domains shown)
VH: B1 VH
VL: B1 VL with V34R, R82S
notes: one-arm IgG as m2
B13: GLS3000 S25A (antibody, name in Kabat numbering, V domains shown)
VH: B1 VH
VL: B1 VL with S25A, V34R
notes: one-arm IgG as m2
B14: GLS3000 S25D (antibody, name in Kabat numbering, V domains shown)
VH: B1 VH
VL: B1 VL with S25D, V34R
notes: one-arm IgG as m2
B15: GLS3000 S25E (antibody, name in Kabat numbering, V domains shown)
VH: B1 VH
VL: B1 VL with S25E, V34R
notes: one-arm IgG as m2
B16: GLS3000 S25I (antibody, name in Kabat numbering, V domains shown)
VH: B1 VH
VL: B1 VL with S25I, V34R
notes: one-arm IgG as m2
B17: GLS3000 S25L (antibody, name in Kabat numbering, V domains shown)
VH: B1 VH
VL: B1 VL with S25L, V34R
notes: one-arm IgG as m2
B18: GLS3000 S25M (antibody, name in Kabat numbering, V domains shown)
VH: B1 VH
VL: B1 VL with S25M, V34R
notes: one-arm IgG as m2
B19: GLS3000 S25P (antibody, name in Kabat numbering, V domains shown)
VH: B1 VH
VL: B1 VL with S25P, V34R
notes: one-arm IgG as m2
B20: GLS3000 S25T (antibody, name in Kabat numbering, V domains shown)
VH: B1 VH
VL: B1 VL with S25T, V34R
notes: one-arm IgG as m2
B21: GLS3000 S25V (antibody, name in Kabat numbering, V domains shown)
VH: B1 VH
VL: B1 VL with S25V, V34R
notes: one-arm IgG as m2
B22: GLS3000 S26D (antibody, name in Kabat numbering, V domains shown)
VH: B1 VH
VL: B1 VL with S26D, V34R
notes: one-arm IgG as m2
B23: GLS3000 S26E (antibody, name in Kabat numbering, V domains shown)
VH: B1 VH
VL: B1 VL with S26E, V34R
notes: one-arm IgG as m2
B24: GLS3000 S26P (antibody, name in Kabat numbering, V domains shown)
VH: B1 VH
VL: B1 VL with S26P, V34R
notes: one-arm IgG as m2
B25: GLS3000 S27aD (antibody, name in Kabat numbering, V domains shown)
VH: B1 VH
VL: B1 VL with S28D, V34R
notes: one-arm IgG as m2
B26: GLS3000 S27aE (antibody, name in Kabat numbering, V domains shown)
VH: B1 VH
VL: B1 VL with S28E, V34R
notes: one-arm IgG as m2
B27: GLS3000 S27aG (antibody, name in Kabat numbering, V domains shown)
VH: B1 VH
VL: B1 VL with S28G, V34R
notes: one-arm IgG as m2
B28: GLS3000 S27aI (antibody, name in Kabat numbering, V domains shown)
VH: B1 VH
VL: B1 VL with S28I, V34R
notes: one-arm IgG as m2
B29: GLS3000 S27aN (antibody, name in Kabat numbering, V domains shown)
VH: B1 VH
VL: B1 VL with S28N, V34R
notes: one-arm IgG as m2
B30: GLS3000 S27aP (antibody, name in Kabat numbering, V domains shown)
VH: B1 VH
VL: B1 VL with S28P, V34R
notes: one-arm IgG as m2
B31: GLS3000 S27aY (antibody, name in Kabat numbering, V domains shown)
VH: B1 VH
VL: B1 VL with S28Y, V34R
notes: one-arm IgG as m2
B32: GLS3000 S27eA (antibody, name in Kabat numbering, V domains shown)
VH: B1 VH
VL: B1 VL with S32A, V34R
notes: one-arm IgG as m2
B33: GLS3000 S27eD (antibody, name in Kabat numbering, V domains shown)
VH: B1 VH
VL: B1 VL with S32D, V34R
notes: one-arm IgG as m2
B34: GLS3000 S27eE (antibody, name in Kabat numbering, V domains shown)
VH: B1 VH
VL: B1 VL with S32E, V34R
notes: one-arm IgG as m2
B35: GLS3000 S27eF (antibody, name in Kabat numbering, V domains shown)
VH: B1 VH
VL: B1 VL with S32F, V34R
notes: one-arm IgG as m2
B36: GLS3000 S27eG (antibody, name in Kabat numbering, V domains shown)
VH: B1 VH
VL: B1 VL with S32G, V34R
notes: one-arm IgG as m2
B37: GLS3000 S27eH (antibody, name in Kabat numbering, V domains shown)
VH: B1 VH
VL: B1 VL with S32H, V34R
notes: one-arm IgG as m2
B38: GLS3000 S27eI (antibody, name in Kabat numbering, V domains shown)
VH: B1 VH
VL: B1 VL with S32I, V34R
notes: one-arm IgG as m2
B39: GLS3000 S27eK (antibody, name in Kabat numbering, V domains shown)
VH: B1 VH
VL: B1 VL with S32K, V34R
notes: one-arm IgG as m2
B40: GLS3000 S27eL (antibody, name in Kabat numbering, V domains shown)
VH: B1 VH
VL: B1 VL with S32L, V34R
notes: one-arm IgG as m2
B41: GLS3000 S27eM (antibody, name in Kabat numbering, V domains shown)
VH: B1 VH
VL: B1 VL with S32M, V34R
notes: one-arm IgG as m2
B42: GLS3000 S27eN (antibody, name in Kabat numbering, V domains shown)
VH: B1 VH
VL: B1 VL with S32N, V34R
notes: one-arm IgG as m2
B43: GLS3000 S27eP (antibody, name in Kabat numbering, V domains shown)
VH: B1 VH
VL: B1 VL with S32P, V34R
notes: one-arm IgG as m2
B44: GLS3000 S27eQ (antibody, name in Kabat numbering, V domains shown)
VH: B1 VH
VL: B1 VL with S32Q, V34R
notes: one-arm IgG as m2
B45: GLS3000 S27eR (antibody, name in Kabat numbering, V domains shown)
VH: B1 VH
VL: B1 VL with S32R, V34R
notes: one-arm IgG as m2
B46: GLS3000 S27eT (antibody, name in Kabat numbering, V domains shown)
VH: B1 VH
VL: B1 VL with S32T, V34R
notes: one-arm IgG as m2

biological target: T1, CD3 epsilon homodimer protein (UniProt P07766 23-126); experiment: SPR Biacore T200, CD3e homodimer on chip, vs unaltered GLS3000 antibody
T1 construct: also called CD3 (CD3 epsilon)
T1 sequence (P07766 23-126): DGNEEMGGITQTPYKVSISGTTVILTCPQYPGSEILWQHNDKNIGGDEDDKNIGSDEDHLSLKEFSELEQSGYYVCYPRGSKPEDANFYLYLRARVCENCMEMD

| Binder | ratio of amounts bound (Z=Y/X) |
| --- | --- |
| B1 | 0.34 |
| B2 | 0.69 |
| B3 | 0.69 |
| B4 | 0.36 |
| B5 | 0.58 |
| B6 | 0.67 |
| B7 | 0.84 |
| B8 | 0.68 |
| B9 | 0.79 |
| B10 | 0.65 |
| B11 | 0.78 |
| B12 | 0.92 |
| B13 | 0.92 |
| B14 | 0.18 |
| B15 | 0.21 |
| B16 | 0.53 |
| B17 | 0.24 |
| B18 | 0.31 |
| B19 | 1.01 |
| B20 | 0.83 |
| B21 | 0.73 |
| B22 | 0.86 |
| B23 | 0.74 |

| Binder | ratio of amounts bound (Z=Y/X) |
| --- | --- |
| B24 | 0.78 |
| B25 | 0.79 |
| B26 | 0.81 |
| B27 | 1.03 |
| B28 | 1 |
| B29 | 1.1 |
| B30 | 0.99 |
| B31 | 1.1 |
| B32 | 1.03 |
| B33 | 0.69 |
| B34 | 0.76 |
| B35 | 1.32 |
| B36 | 1.04 |
| B37 | 1.23 |
| B38 | 1.07 |
| B39 | 1.59 |
| B40 | 1.17 |
| B41 | 1.23 |
| B42 | 1.16 |
| B43 | 1.26 |
| B44 | 1.1 |
| B45 | 1.58 |
| B46 | 0.97 |
